Reference: paper PMC6028960, “The kinetochore proteins CENP-E and CENP-F directly and specifically interact with distinct BUB mitotic checkpoint Ser/Thr kinases” (The Journal of Biological Chemistry, 2018)

B3: eGFP-CENP-E^2070-C (domain or fragment, human, UniProt Q02224 2070-2701, looked up)
chain: RQNHQVKPEKRLLSDGQQHLTESLREKCSRIKELLKRYSEMDDHYECLNRLSLDLEKEIEFQKELSMRVKANLSLPYLQTKHIEKLFTANQRCSMEFHRIMKKLKYVLSYVTKIKEEQHESINKFEMDFIDEVEKQKELLIKIQHLQQDCDVPSRELRDLKLNQNMDLHIEEILKDFSESEFPSIKTEFQQVLSNRKEMTQFLEEWLNTRFDIEKLKNGIQKENDRICQVNNFFNNRIIAIMNESTEFEERSATISKEWEQDLKSLKEKNEKLFKNYQTLKTSLASGAQVNPTTQDNKNPHVTSRATQLTTEKIRELENSLHEAKESAMHKESKIIKMQKELEVTNDIIAKLQAKVHESNKCLEKTKETIQVLQDKVALGAKPYKEEIEDLKMKLVKIDLEKMKNAKEFEKEISATKATVEYQKEVIRLLRENLRRSQQAQDTSVISEHTDPQPSNKPLTCGGGSGIVQNTKALILKSEHIRLEKEISKLKQQNEQLIKQKNELLSNNQHLSNEVKTWKERTLKREAHKQVTCENSPKSPKVTGTASKKKQITPSQCKERNLQDPVPKESPKSCFFDSRSKSLPSPHPVRYFDNSSLGLCPEVQNAGAESVDSQPGPWHASSGKDVPECKTQ
notes: codon-optimized cDNA; N-terminal PreScission-cleavable His6-eGFP tag from the pLIB-eGFP vector; source: insect cells (baculovirus made in Sf9, Tnao38 infected), purified (HisTrap, Superose 6 SEC); not shown: eGFP, N-terminal, kept

What was measured:
eGFP-CENP-E^2070-C = target: B3; test: SEC; analytical SEC; 4 μM BUB1 or BUBR1 constructs or BUB1/BUB3 or BUBR1/BUB3 complexes mixed with 16 μM CENP-E or CENP-F proteins in 30 μl; 4 °C; Superose 6 5/150 or Superdex 75 5/150; 50 mM Hepes pH 8.0, 100 mM NaCl, 5% glycerol, 0.5 mM TCEP; fractions by SDS-PAGE; conditions: both partners purified
[1] = target: the molecule itself; test: AUC; sedimentation velocity, 42,000 rpm, 20 °C; 6 μM mCherry-CENP-F fragment alone, scanned at 587 nm; self-association
BUBR1/BUB3 complex = target: T1, BUBR1/BUB3 complex (human | , UniProt O60566 1-1050; O43684 1-328); test: SEC; analytical SEC; 4 μM BUB1 or BUBR1 constructs or BUB1/BUB3 or BUBR1/BUB3 complexes mixed with 16 μM CENP-E or CENP-F proteins in 30 μl; 4 °C; Superose 6 5/150 or Superdex 75 5/150; 50 mM Hepes pH 8.0, 100 mM NaCl, 5% glycerol, 0.5 mM TCEP; fractions by SDS-PAGE; conditions: both partners purified
T1 construct: human BUB1-related (BUBR1) mitotic checkpoint Ser/Thr kinase, full-length, co-expressed with BUB3; BUB3, co-expressed with BUBR1; also called dimeric BUBR1/BUB3 complex
T1 sequence (O43684 whole entry, one chain of several): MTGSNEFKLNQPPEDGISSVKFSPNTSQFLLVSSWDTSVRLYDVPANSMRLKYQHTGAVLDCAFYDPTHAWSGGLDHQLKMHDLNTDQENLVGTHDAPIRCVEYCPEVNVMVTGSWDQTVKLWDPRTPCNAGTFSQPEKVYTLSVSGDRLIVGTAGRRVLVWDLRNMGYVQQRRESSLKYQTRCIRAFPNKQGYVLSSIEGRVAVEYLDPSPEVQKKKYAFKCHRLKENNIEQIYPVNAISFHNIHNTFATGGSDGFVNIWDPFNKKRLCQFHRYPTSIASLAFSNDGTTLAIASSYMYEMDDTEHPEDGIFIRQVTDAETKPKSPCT

B1: BUBR1 pseudokinase domain (KinD, residues 705–1050) (domain or fragment, human, UniProt O60566 705-1050, looked up)
chain: EKLELTNETSENPTQSPWCSQYRRQLLKSLPELSASAELCIEDRPMPKLEIEKEIELGNEDYCIKREYLICEDYKLFWVAPRNSAELTVIKVSSQPVPWDFYINLKLKERLNEDFDHFCSCYQYQDGCIVWHQYINCFTLQDLLQHSEYITHEITVLIIYNLLTIVEMLHKAEIVHGDLSPRCLILRNRIHDPYDCNKNNQALKIVDFSYSVDLRVQLDVFTLSGFRTVQILEGQKILANCSSPYQVDLFGIADLAHLLLFKEHLQVFWDGSFWKLSQNISELKDGELWNKFFVRILNANDEATVSVLGELAAEMNGVFDTTFQSHLNKALWKVGKLTSPGALLFQ
notes: human BUBR1, pseudokinase domain, residues 705-1050; also called BUBR1 pseudo-kinase domain (KinD) construct; BUBR1 KinD
- binding result (eGFP-CENP-E^2070-C): binds

B2: mCherry-CENP-F(2922–2990) (domain or fragment, human, UniProt P49454 2826-2894, looked up)
chain: QKTGTVMDTKVDELTTEIKELKETLEEKTKEADEYLDKYCSLLISHEKLEKAKEMLETQVAHLCSQQSK
notes: Dimer by sedimentation velocity AUC; source: E. coli BL21 (DE3) RP plus, purified (HisTrap, Superdex 75 SEC); not shown: mCherry, N-terminal, kept
- stoichiometry N [1]: 2

Binder: B3
- binding result (BUBR1/BUB3 complex): binds

B4: mCherry-CENP-F(2866–2990) (domain or fragment, human, UniProt P49454 2770-2894, looked up)
chain: LKKTKMDNLKYVNQLKKENERAQGKMKLLIKSCKQLEEEKEILQKELSQLQAAQEKQKTGTVMDTKVDELTTEIKELKETLEEKTKEADEYLDKYCSLLISHEKLEKAKEMLETQVAHLCSQQSK
notes: as for B2
- stoichiometry N [1]: 2
